{
  "source": "paper PMC1326243",
  "about": "(Nucleic Acids Research, 2006)",
  "proteins": {"B1": {"name": "Bacillus subtilis LrpC (natural protein, B. subtilis, UniProt P96582 1-144, looked up)", "chain": "MKLDQIDLNIIEELKKDSRLSMRELGRKIKLSPPSVTERVRQLESFGIIKQYTLEVDQKKLGLPVSCIVEATVKNADYERFKSYIQTLPNIEFCYRIAGAACYMLKINAESLEAVEDFINKTSPYAQTVTHVIFSEIDTKNGRG"}, "B2": {"name": "B.subtilis RecU Holliday-junction resolvase (enzyme, B. subtilis, UniProt P39792 1-206, looked up)", "chain": "MIRYPNGKTFQPKHSVSSQNSQKRAPSYSNRGMTLEDDLNETNKYYLTNQIAVIHKKPTPVQIVNVHYPKRSAAVIKEAYFKQSSTTDYNGIYKGRYIDFEAKETKNKTSFPLQNFHDHQIEHMKQVKAQDGICFVIISAFDQVYFLEADKLFYFWDRKEKNGRKSIRKDELEETAYPISLGYAPRIDYISIIEQLYFSPSSGAKG"}},
  "biological_target": "the molecule itself",
  "assay": "cross-linking",
  "data": [
    {"protein": "B1", "values": [
      {"measurement": "stoichiometry N", "value": "≥ 2"}
    ]},
    {"protein": "B2", "values": [
      {"measurement": "stoichiometry N", "value": 2}
    ]}
  ]
}
